In article PMC5028032, “Linkage between Fitness of Yeast Cells and Adenylate Kinase Catalysis” (PLoS ONE, 2016):

System: Nc1ncnc2c1ncn2[C@@H]1O[C@H](COP(=O)(O)OP(=O)(O)OP(=O)(O)O)[C@@H](O)[C@H]1O
Test: purified protein
Settings: 300 μM AMP constant, 2 mM MgCl2, 80 mM KCl, 100 mM Tris pH 7.5, 20°C

| Substance | Km | kcat | kcat/Km |
| --- | --- | --- | --- |
| Adkeco (Escherichia coli K-12; T163C) | 37 ± 2 µM | 143 s⁻¹ | 3.9e+06 M⁻¹ s⁻¹ |
| Adkeco (Escherichia coli K-12) | 72 ± 8 µM | 305 s⁻¹ | 4.26e+06 M⁻¹ s⁻¹ |
| Adkeco (Escherichia coli K-12; G10V) | 411 ± 61 µM | 60 s⁻¹ | 140000 M⁻¹ s⁻¹ |
